Laboratory results reported in patent EP4703372A1.
Read-outs that look alike come from different tables or passages of the source.

Experiments:
[1] = target: Humira, which included human κ light chain subgroup 1 (Vκ1) (manufactured by Eisai Co., Ltd.); assay: ratio of ELISA A450 on Humira (Vκ1) to A450 on Human PDGFR alpha antibody (Vκ3) (repeats Table 17)
[2] = target: Humira, which included human κ light chain subgroup 1 (Vκ1) (manufactured by Eisai Co., Ltd.); assay: ratio of ELISA A450 on Humira (Vκ1) to A450 on Human PCSK9 antibody (Vκ4)
[3] = target: Human PDGFR alpha antibody, which included human κ light chain subgroup 3 (Vκ3) (manufactured by R&D Systems, Inc.); assay: ELISA, antibody immobilised, binder at 50 ug/mL, anti-6-His detection (repeats Table 17)
[4] = target: Human PCSK9 antibody, which included human κ light chain subgroup 4 (Vκ4) (manufactured by R&D Systems, Inc.); assay: as above
[5] = target: Humira, which included human κ light chain subgroup 1 (Vκ1) (manufactured by Eisai Co., Ltd.); assay: as above
[6] = target: Humira, which included human κ light chain subgroup 1 (Vκ1) (manufactured by Eisai Co., Ltd.); assay: ratio of ELISA A450 on Humira (Vκ1) to A450 on Human PCSK9 antibody (Vκ4) (repeats Table 17)
[7] = target: Humira, which included human κ light chain subgroup 1 (Vκ1) (manufactured by Eisai Co., Ltd.); assay: ratio of ELISA A450 on Humira (Vκ1) to A450 on Human PDGFR alpha antibody (Vκ3)
[8] = target: Human PDGFR alpha antibody, which included human κ light chain subgroup 3 (Vκ3) (manufactured by R&D Systems, Inc.); assay: ELISA, antibody immobilised (10 ug/mL), binder at 50 ug/mL, anti-6-His detection, blank subtracted
[9] = target: Human PCSK9 antibody, which included human κ light chain subgroup 4 (Vκ4) (manufactured by R&D Systems, Inc.); assay: as above
[10] = target: Humira, which included human κ light chain subgroup 1 (Vκ1) (manufactured by Eisai Co., Ltd.); assay: as above
[11] = target: Human CTLA4 antibody, which included human κ light chain subgroup 3 (Vκ3) (manufactured by R&D Systems, Inc.); assay: as above
[12] = target: Herceptin, which included human κ light chain subgroup 1 (Vκ1) (manufactured by Chugai Pharmaceutical Co., Ltd.); assay: as above
[13] = target: Human CTLA4 antibody, which included human κ light chain subgroup 3 (Vκ3) (manufactured by R&D Systems, Inc.); assay: as above; remark: listed apart in the source
[14] = target: Herceptin, which included human κ light chain subgroup 1 (Vκ1) (manufactured by Chugai Pharmaceutical Co., Ltd.); assay: as above; remark: listed apart in the source

Substance | Absorbance ratio (Vκ1/Vκ3) [1] | Absorbance ratio (Vκ1/Vκ4) [2] | absorbance at 450 nm (absorbance at 450 nm) [3] | absorbance at 450 nm (absorbance at 450 nm) [4] | absorbance at 450 nm (absorbance at 450 nm) [5] | Absorbance ratio (Vκ1/Vκ4) [6] | Absorbance ratio (Vκ1/Vκ3) [7] | absorbance at 450 nm (absorbance at 450 nm) [8] | absorbance at 450 nm (absorbance at 450 nm) [9] | absorbance at 450 nm (absorbance at 450 nm) [10] | absorbance at 450 nm (absorbance at 450 nm) [11] | absorbance at 450 nm (absorbance at 450 nm) [12] | absorbance at 450 nm (absorbance at 450 nm) [13] | absorbance at 450 nm (absorbance at 450 nm) [14]
C3 immunoglobulin-binding domain of Protein L derived from Finegoldia magna (FpL_C3), wild-type | 1.2 | 0.9 | 0.71 | 0.91 | 0.82 | 0.9 | 1.2 | 0.71 | 0.91 | 0.82 | – | – | – | –
FpL_C3KR (all lysine residues of FpL_C3 substituted with arginine) (designed binder) | – | – | – | – | – | – | – | 0.21 | 0.77 | – | 0.07 | 0.86 | 0.32 | 0.92
FpL_C3KR_K38E (K(R)38E introduced into FpL_C3KR) (designed binder) | – | – | – | – | – | – | – | – | – | – | 0.98 | – | – | –
